# Assay results published in article PMC10638775.
# Target: FGFR1 on NIH3T3 cells (mouse (NIH3T3 fibroblasts)) (UniProt P16092)
# Assay: flow cytometry
# Conditions: SPR: Biacore T200, CM5 amine coupling, HBS running buffer (pH, salt, temperature not stated), flow cytometry: PBS, 1% BSA, 0.1% sodium azide, room temperature
# FGFR1 on NIH3T3 cells (mouse (NIH3T3 fibroblasts)), sequence (P16092 22-822): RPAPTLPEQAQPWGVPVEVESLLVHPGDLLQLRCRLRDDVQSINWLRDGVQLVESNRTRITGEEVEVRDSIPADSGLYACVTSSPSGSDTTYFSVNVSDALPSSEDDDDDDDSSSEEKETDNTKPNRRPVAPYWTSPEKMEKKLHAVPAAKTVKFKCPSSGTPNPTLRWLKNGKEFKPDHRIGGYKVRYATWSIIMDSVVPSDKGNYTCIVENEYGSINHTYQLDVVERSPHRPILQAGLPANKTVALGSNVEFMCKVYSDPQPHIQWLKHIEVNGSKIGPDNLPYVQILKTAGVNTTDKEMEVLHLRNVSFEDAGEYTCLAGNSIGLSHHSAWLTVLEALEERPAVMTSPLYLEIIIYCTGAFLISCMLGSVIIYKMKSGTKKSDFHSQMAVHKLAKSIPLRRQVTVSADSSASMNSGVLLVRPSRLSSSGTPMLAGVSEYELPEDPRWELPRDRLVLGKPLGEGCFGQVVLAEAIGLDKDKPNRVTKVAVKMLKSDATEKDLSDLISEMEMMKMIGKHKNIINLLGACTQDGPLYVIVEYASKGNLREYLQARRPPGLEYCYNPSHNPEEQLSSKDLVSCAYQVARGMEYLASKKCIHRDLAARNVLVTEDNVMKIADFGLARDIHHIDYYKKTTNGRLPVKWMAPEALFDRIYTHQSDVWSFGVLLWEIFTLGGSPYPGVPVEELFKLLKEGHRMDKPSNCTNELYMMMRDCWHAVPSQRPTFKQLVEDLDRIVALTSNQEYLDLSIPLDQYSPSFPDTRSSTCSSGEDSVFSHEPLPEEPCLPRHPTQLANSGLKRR
sequence,measurement,value
GCCGCGTCTTTATGGCTGGGGATGGTGTGGGTTGCGGC [FAM-FGFR-binder],Kd,39 nM
